We go through six molecules from patent US20210139548A1 (published 2021).

*1 amine or outer side, *2 acyl side, *3 side chain or, on linkers, in order; H or OH if unused. Side-chain parts run from the residue outwards. The star is where a group is joined. C18 diacid = O=C(O)CCCCCCCCCCCCCCCCC(=O)*; γGlu = O=C(O)[C@H](CCC(=O)[*:2])N[*:1]; Isovaleryl = CC(C)CC(=O)*; AEEA = NCCOCCOCC(=O)O

What is called Ki is the equilibrium dissociation constant of an inhibitor or competing ligand from its target. A high value points to weaker binding.

First the molecules themselves.
T1: human neuropeptide Y2 receptor (human, UniProt P49146 1-381)
T1 construct: whole, on cells; also called hNPY2 receptor; hNPY2-R
T1 sequence (looked up): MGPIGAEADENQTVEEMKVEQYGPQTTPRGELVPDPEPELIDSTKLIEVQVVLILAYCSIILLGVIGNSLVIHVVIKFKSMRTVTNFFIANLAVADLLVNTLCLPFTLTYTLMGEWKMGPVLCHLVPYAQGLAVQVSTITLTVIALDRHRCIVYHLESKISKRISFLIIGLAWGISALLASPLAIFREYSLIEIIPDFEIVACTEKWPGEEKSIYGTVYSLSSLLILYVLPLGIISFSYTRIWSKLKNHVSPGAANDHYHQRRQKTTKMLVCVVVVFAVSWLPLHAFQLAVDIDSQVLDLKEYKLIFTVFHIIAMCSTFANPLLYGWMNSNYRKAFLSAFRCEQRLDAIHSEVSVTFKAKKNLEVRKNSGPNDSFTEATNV

B1: Compound 35 (peptide)
peptide: Isovaleryl-APEK([AEEA-AEEA-γGlu-C18 diacid])PEEDAAPEETQRYYVSLRHYYNWLTRQRY-NH2
SMILES: CC(C)CC(=O)N[C@@H](C)C(=O)N1CCC[C@H]1C(=O)N[C@@H](CCC(=O)O)C(=O)N[C@@H](CCCCNC(=O)COCCOCCNC(=O)COCCOCCNC(=O)CC[C@H](NC(=O)CCCCCCCCCCCCCCCCC(=O)O)C(=O)O)C(=O)N1CCC[C@H]1C(=O)N[C@@H](CCC(=O)O)C(=O)N[C@@H](CCC(=O)O)C(=O)N[C@@H](CC(=O)O)C(=O)N[C@@H](C)C(=O)N[C@@H](C)C(=O)N1CCC[C@H]1C(=O)N[C@@H](CCC(=O)O)C(=O)N[C@@H](CCC(=O)O)C(=O)N[C@H](C(=O)N[C@@H](CCC(N)=O)C(=O)N[C@@H](CCCNC(=N)N)C(=O)N[C@@H](Cc1ccc(O)cc1)C(=O)N[C@@H](Cc1ccc(O)cc1)C(=O)N[C@H](C(=O)N[C@@H](CO)C(=O)N[C@@H](CC(C)C)C(=O)N[C@@H](CCCNC(=N)N)C(=O)N[C@@H](Cc1c[nH]cn1)C(=O)N[C@@H](Cc1ccc(O)cc1)C(=O)N[C@@H](Cc1ccc(O)cc1)C(=O)N[C@@H](CC(N)=O)C(=O)N[C@@H](Cc1c[nH]c2ccccc12)C(=O)N[C@@H](CC(C)C)C(=O)N[C@H](C(=O)N[C@@H](CCCNC(=N)N)C(=O)N[C@@H](CCC(N)=O)C(=O)N[C@@H](CCCNC(=N)N)C(=O)N[C@@H](Cc1ccc(O)cc1)C(N)=O)[C@@H](C)O)C(C)C)[C@@H](C)O
B2: Compound 40 (peptide)
peptide: Isovaleryl-APEK([AEEA-AEEA-γGlu-C18 diacid])PEEDATPEETQRYYVSLRHYYNWLTRQRY-NH2
SMILES: CC(C)CC(=O)N[C@@H](C)C(=O)N1CCC[C@H]1C(=O)N[C@@H](CCC(=O)O)C(=O)N[C@@H](CCCCNC(=O)COCCOCCNC(=O)COCCOCCNC(=O)CC[C@H](NC(=O)CCCCCCCCCCCCCCCCC(=O)O)C(=O)O)C(=O)N1CCC[C@H]1C(=O)N[C@@H](CCC(=O)O)C(=O)N[C@@H](CCC(=O)O)C(=O)N[C@@H](CC(=O)O)C(=O)N[C@@H](C)C(=O)N[C@H](C(=O)N1CCC[C@H]1C(=O)N[C@@H](CCC(=O)O)C(=O)N[C@@H](CCC(=O)O)C(=O)N[C@H](C(=O)N[C@@H](CCC(N)=O)C(=O)N[C@@H](CCCNC(=N)N)C(=O)N[C@@H](Cc1ccc(O)cc1)C(=O)N[C@@H](Cc1ccc(O)cc1)C(=O)N[C@H](C(=O)N[C@@H](CO)C(=O)N[C@@H](CC(C)C)C(=O)N[C@@H](CCCNC(=N)N)C(=O)N[C@@H](Cc1c[nH]cn1)C(=O)N[C@@H](Cc1ccc(O)cc1)C(=O)N[C@@H](Cc1ccc(O)cc1)C(=O)N[C@@H](CC(N)=O)C(=O)N[C@@H](Cc1c[nH]c2ccccc12)C(=O)N[C@@H](CC(C)C)C(=O)N[C@H](C(=O)N[C@@H](CCCNC(=N)N)C(=O)N[C@@H](CCC(N)=O)C(=O)N[C@@H](CCCNC(=N)N)C(=O)N[C@@H](Cc1ccc(O)cc1)C(N)=O)[C@@H](C)O)C(C)C)[C@@H](C)O)[C@@H](C)O
B3: Compound 43 (peptide)
peptide: Isovaleryl-APEK([AEEA-AEEA-γGlu-C18 diacid])PEAPASPEELQRYYVSLRHYYNWLTRQRY-NH2
SMILES: CC(C)CC(=O)N[C@@H](C)C(=O)N1CCC[C@H]1C(=O)N[C@@H](CCC(=O)O)C(=O)N[C@@H](CCCCNC(=O)COCCOCCNC(=O)COCCOCCNC(=O)CC[C@H](NC(=O)CCCCCCCCCCCCCCCCC(=O)O)C(=O)O)C(=O)N1CCC[C@H]1C(=O)N[C@@H](CCC(=O)O)C(=O)N[C@@H](C)C(=O)N1CCC[C@H]1C(=O)N[C@@H](C)C(=O)N[C@@H](CO)C(=O)N1CCC[C@H]1C(=O)N[C@@H](CCC(=O)O)C(=O)N[C@@H](CCC(=O)O)C(=O)N[C@@H](CC(C)C)C(=O)N[C@@H](CCC(N)=O)C(=O)N[C@@H](CCCNC(=N)N)C(=O)N[C@@H](Cc1ccc(O)cc1)C(=O)N[C@@H](Cc1ccc(O)cc1)C(=O)N[C@H](C(=O)N[C@@H](CO)C(=O)N[C@@H](CC(C)C)C(=O)N[C@@H](CCCNC(=N)N)C(=O)N[C@@H](Cc1c[nH]cn1)C(=O)N[C@@H](Cc1ccc(O)cc1)C(=O)N[C@@H](Cc1ccc(O)cc1)C(=O)N[C@@H](CC(N)=O)C(=O)N[C@@H](Cc1c[nH]c2ccccc12)C(=O)N[C@@H](CC(C)C)C(=O)N[C@H](C(=O)N[C@@H](CCCNC(=N)N)C(=O)N[C@@H](CCC(N)=O)C(=O)N[C@@H](CCCNC(=N)N)C(=O)N[C@@H](Cc1ccc(O)cc1)C(N)=O)[C@@H](C)O)C(C)C
B4: Compound 36 (peptide)
peptide: Isovaleryl-APEK([AEEA-AEEA-γGlu-C18 diacid])AEEDAEPEELQRYYVSLRHYYNWLTRQRY-NH2
SMILES: CC(C)CC(=O)N[C@@H](C)C(=O)N1CCC[C@H]1C(=O)N[C@@H](CCC(=O)O)C(=O)N[C@@H](CCCCNC(=O)COCCOCCNC(=O)COCCOCCNC(=O)CC[C@H](NC(=O)CCCCCCCCCCCCCCCCC(=O)O)C(=O)O)C(=O)N[C@@H](C)C(=O)N[C@@H](CCC(=O)O)C(=O)N[C@@H](CCC(=O)O)C(=O)N[C@@H](CC(=O)O)C(=O)N[C@@H](C)C(=O)N[C@@H](CCC(=O)O)C(=O)N1CCC[C@H]1C(=O)N[C@@H](CCC(=O)O)C(=O)N[C@@H](CCC(=O)O)C(=O)N[C@@H](CC(C)C)C(=O)N[C@@H](CCC(N)=O)C(=O)N[C@@H](CCCNC(=N)N)C(=O)N[C@@H](Cc1ccc(O)cc1)C(=O)N[C@@H](Cc1ccc(O)cc1)C(=O)N[C@H](C(=O)N[C@@H](CO)C(=O)N[C@@H](CC(C)C)C(=O)N[C@@H](CCCNC(=N)N)C(=O)N[C@@H](Cc1c[nH]cn1)C(=O)N[C@@H](Cc1ccc(O)cc1)C(=O)N[C@@H](Cc1ccc(O)cc1)C(=O)N[C@@H](CC(N)=O)C(=O)N[C@@H](Cc1c[nH]c2ccccc12)C(=O)N[C@@H](CC(C)C)C(=O)N[C@H](C(=O)N[C@@H](CCCNC(=N)N)C(=O)N[C@@H](CCC(N)=O)C(=O)N[C@@H](CCCNC(=N)N)C(=O)N[C@@H](Cc1ccc(O)cc1)C(N)=O)[C@@H](C)O)C(C)C
B5: Compound 42 (peptide)
peptide: Isovaleryl-APEK([AEEA-AEEA-γGlu-C18 diacid])PEEAASPEELQRYYVSTRHYYNWLTRQRY-NH2
SMILES: CC(C)CC(=O)N[C@@H](C)C(=O)N1CCC[C@H]1C(=O)N[C@@H](CCC(=O)O)C(=O)N[C@@H](CCCCNC(=O)COCCOCCNC(=O)COCCOCCNC(=O)CC[C@H](NC(=O)CCCCCCCCCCCCCCCCC(=O)O)C(=O)O)C(=O)N1CCC[C@H]1C(=O)N[C@@H](CCC(=O)O)C(=O)N[C@@H](CCC(=O)O)C(=O)N[C@@H](C)C(=O)N[C@@H](C)C(=O)N[C@@H](CO)C(=O)N1CCC[C@H]1C(=O)N[C@@H](CCC(=O)O)C(=O)N[C@@H](CCC(=O)O)C(=O)N[C@@H](CC(C)C)C(=O)N[C@@H](CCC(N)=O)C(=O)N[C@@H](CCCNC(=N)N)C(=O)N[C@@H](Cc1ccc(O)cc1)C(=O)N[C@@H](Cc1ccc(O)cc1)C(=O)N[C@H](C(=O)N[C@@H](CO)C(=O)N[C@H](C(=O)N[C@@H](CCCNC(=N)N)C(=O)N[C@@H](Cc1c[nH]cn1)C(=O)N[C@@H](Cc1ccc(O)cc1)C(=O)N[C@@H](Cc1ccc(O)cc1)C(=O)N[C@@H](CC(N)=O)C(=O)N[C@@H](Cc1c[nH]c2ccccc12)C(=O)N[C@@H](CC(C)C)C(=O)N[C@H](C(=O)N[C@@H](CCCNC(=N)N)C(=O)N[C@@H](CCC(N)=O)C(=O)N[C@@H](CCCNC(=N)N)C(=O)N[C@@H](Cc1ccc(O)cc1)C(N)=O)[C@@H](C)O)[C@@H](C)O)C(C)C
B6: Compound 37 (peptide)
peptide: Isovaleryl-APEK([AEEA-AEEA-γGlu-C18 diacid])PEEDASPEETQRYEVSLRHYYNWLTRQRY-NH2
SMILES: CC(C)CC(=O)N[C@@H](C)C(=O)N1CCC[C@H]1C(=O)N[C@@H](CCC(=O)O)C(=O)N[C@@H](CCCCNC(=O)COCCOCCNC(=O)COCCOCCNC(=O)CC[C@H](NC(=O)CCCCCCCCCCCCCCCCC(=O)O)C(=O)O)C(=O)N1CCC[C@H]1C(=O)N[C@@H](CCC(=O)O)C(=O)N[C@@H](CCC(=O)O)C(=O)N[C@@H](CC(=O)O)C(=O)N[C@@H](C)C(=O)N[C@@H](CO)C(=O)N1CCC[C@H]1C(=O)N[C@@H](CCC(=O)O)C(=O)N[C@@H](CCC(=O)O)C(=O)N[C@H](C(=O)N[C@@H](CCC(N)=O)C(=O)N[C@@H](CCCNC(=N)N)C(=O)N[C@@H](Cc1ccc(O)cc1)C(=O)N[C@@H](CCC(=O)O)C(=O)N[C@H](C(=O)N[C@@H](CO)C(=O)N[C@@H](CC(C)C)C(=O)N[C@@H](CCCNC(=N)N)C(=O)N[C@@H](Cc1c[nH]cn1)C(=O)N[C@@H](Cc1ccc(O)cc1)C(=O)N[C@@H](Cc1ccc(O)cc1)C(=O)N[C@@H](CC(N)=O)C(=O)N[C@@H](Cc1c[nH]c2ccccc12)C(=O)N[C@@H](CC(C)C)C(=O)N[C@H](C(=O)N[C@@H](CCCNC(=N)N)C(=O)N[C@@H](CCC(N)=O)C(=O)N[C@@H](CCCNC(=N)N)C(=O)N[C@@H](Cc1ccc(O)cc1)C(N)=O)[C@@H](C)O)C(C)C)[C@@H](C)O

For this assay, the target named is T1, human neuropeptide Y2 receptor. The assay can be described thus: radioligand competition (125I-PYY(1-36)), hNPY2R membranes. Summed up: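 Commercial human Y2 receptor membranes (0.5 μg protein/well) were incubated with peptide for 2 h at room temperature in 50 mM HEPES, 5 mM MgCl₂, 1 mM CaCl₂, pH 7.4, with 0.2% ovalbumin. Bound radioligand was separated on PEI-soaked GF/C filters and counted by scintillation, and IC₅₀ came from nonlinear sigmoidal regression.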
In the case of B1, the inhibition constant (Ki) is 1.21 nM.
B2 registered an inhibition constant (Ki) of 1.21 nM.
As to B3, the Ki was found to be 0.4 nM.
As for B4, the figure is 10.6 nM; as for B5, 5.92 nM.
As to B6, affinity was put at a Ki of 4.85 nM.
